Source: paper PMC10999177, “miR‐1246 promotes osteosarcoma cell migration via NamiRNA‐enhancer network dependent on Argonaute 2”

Molecular target: hAGO2 (Homo sapiens, UniProt Q9UKV8 1-859)
Assay: EMSA; 20 nM probe, binding buffer of cited ref. 28 (composition and pH not given), on ice 30 min; 5% native PAGE, 0.5x TBE, 100 V 50 min
Conditions: protein: recombinant; tags: MBP-tag removed by thrombin; HisTrap purification (His tag implied); label: 5'-Cy5; single strand

hAGO2, sequence (Q9UKV8 whole entry): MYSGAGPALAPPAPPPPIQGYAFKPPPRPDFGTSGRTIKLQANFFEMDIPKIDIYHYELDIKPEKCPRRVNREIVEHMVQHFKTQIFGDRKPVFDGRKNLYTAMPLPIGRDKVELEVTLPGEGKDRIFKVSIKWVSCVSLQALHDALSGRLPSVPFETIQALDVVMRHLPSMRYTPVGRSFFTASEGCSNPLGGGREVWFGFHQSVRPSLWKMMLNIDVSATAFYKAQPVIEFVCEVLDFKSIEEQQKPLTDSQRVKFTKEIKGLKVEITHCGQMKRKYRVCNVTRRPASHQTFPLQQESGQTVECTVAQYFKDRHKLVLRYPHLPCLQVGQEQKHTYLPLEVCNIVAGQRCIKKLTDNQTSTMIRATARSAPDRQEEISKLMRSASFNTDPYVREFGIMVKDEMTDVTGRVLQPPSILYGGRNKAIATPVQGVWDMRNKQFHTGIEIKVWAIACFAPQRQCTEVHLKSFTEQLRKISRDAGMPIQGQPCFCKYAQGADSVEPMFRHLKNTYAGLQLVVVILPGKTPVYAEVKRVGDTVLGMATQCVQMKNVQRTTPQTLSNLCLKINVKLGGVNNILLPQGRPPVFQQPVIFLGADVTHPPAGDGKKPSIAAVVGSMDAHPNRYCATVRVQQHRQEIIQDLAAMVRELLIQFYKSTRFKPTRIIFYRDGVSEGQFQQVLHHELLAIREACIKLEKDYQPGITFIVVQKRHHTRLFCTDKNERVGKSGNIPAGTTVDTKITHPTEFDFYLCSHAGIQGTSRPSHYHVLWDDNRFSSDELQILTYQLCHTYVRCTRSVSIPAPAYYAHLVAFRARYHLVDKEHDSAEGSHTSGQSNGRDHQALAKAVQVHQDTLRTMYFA

Binder: AAUGGAUUUUUGGAGCAGG (ssRNA) [5'Cy5-miR-1246]
- Kd: 12.2 ± 1.8 nM
